The values below come from article PMC7846560, “A promiscuous ancestral enzyme´s structure unveils protein variable regions of the highly diverse metallo-β-lactamase family” (Communications Biology, 2021).

As usually defined, the Km is the substrate concentration at which the rate is half of its maximum. Usually kcat stands for the number of substrate molecules converted per active site and unit of time at saturation.

Substrate in this data set: O=[N+]([O-])c1ccc(OP(=O)(O)Oc2ccc([N+](=O)[O-])cc2)cc1
The experiment in a line: purified protein. Type of data set: biochemical, Ignicoccus hospitalis. The settings on record: pH 8, 90 °C, Ni2+ is the required metal (optimal metal conditions).

B1: Igni18 (Ignicoccus hospitalis KIN4/I) (protein)
chain: MTTVKLTYFGHSAFHVEVDGVGIAIDPWITNPLSKTTLEDYLKNFKTDLVVITHAHEDHIGDALEIMRRTGAKFFSIHEIYVDLTQKGFQGIGANIGGPAKLDDVAPGLGIALTPATHSSYDKGVPTGAIIFKDGKALVYHAGDTGLFAEMQFIGELYAPKVALLPIGGHYTMDIEQALLATKLLRPEVVVPMHYNTFPPIRADPNEFKQKVESAGLAKVRVMEPGETVTFEF
notes: homotrimer; 233 protein residues in the structure
Consider B1, for which the Km came out at 2.5 µM and the kcat came to 6.72e-05 s⁻¹.
